Experimental data from patent publication US20180305451A1 (COMPUGEN, published 2018).
Like-named read-outs stand apart in the source and are kept apart here. Each block holds one binder with its values, some of them ahead of it.

Legend:
mouse HIDE1 Flag [1] = target: T1, mouse HIDE1 Flag (mouse, UniProt Q75VT8 22-222); test: Western blot of whole cell extracts, goat anti-mouse HRP
T1 construct: Over-expressed on HEK293 and EL4 cells (pMSCV); whole cell extracts in WB; also called mHIDE1 flag; not shown: Flag tag
T1 sequence: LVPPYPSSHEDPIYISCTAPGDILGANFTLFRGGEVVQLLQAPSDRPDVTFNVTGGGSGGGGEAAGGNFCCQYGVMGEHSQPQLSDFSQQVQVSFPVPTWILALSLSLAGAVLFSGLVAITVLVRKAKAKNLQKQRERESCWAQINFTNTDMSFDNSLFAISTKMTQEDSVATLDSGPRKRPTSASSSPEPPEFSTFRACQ

[2] = target: T2, HIDE1_HH-1 (Human ECD + human IgG1 Fc mutated C220S at hinge), without SP (human); test: BLI Octet RED384, bivalent Fab-A-FH
T2 construct: Batch #280 in the Serotec and phage display work; also called HIDE1 hECD-hIg; HIDE1 (H:H) recombinant Fc fusion protein
T2 sequence (chain, as listed by the source C220S C220S limits assumed): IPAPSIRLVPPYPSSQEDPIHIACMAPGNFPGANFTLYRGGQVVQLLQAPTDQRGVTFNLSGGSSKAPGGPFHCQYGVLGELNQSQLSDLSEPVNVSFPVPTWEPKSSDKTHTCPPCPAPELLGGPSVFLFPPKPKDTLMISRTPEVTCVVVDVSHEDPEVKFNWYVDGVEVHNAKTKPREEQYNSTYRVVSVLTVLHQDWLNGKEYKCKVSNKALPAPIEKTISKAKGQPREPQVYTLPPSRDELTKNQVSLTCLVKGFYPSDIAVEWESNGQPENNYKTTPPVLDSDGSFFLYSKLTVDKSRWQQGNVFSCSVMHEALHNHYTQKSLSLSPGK

human HIDE1-flag = target: T3, human HIDE1-flag (human, UniProt A8MVS5 20-230); test: FACS, HEK293 human HIDE1 Flag cells vs HEK293 empty vector, goat anti-human IgG F(ab')2-PE
T3 construct: Over-expressed on HEK293, SK-MEL-5, CHO-S and CHO-S OKT3 cells (pMSCV or pcDNA3.1); whole cell extracts in WB; Entry includes the signal peptide; also called hHIDE1 Flag
T3 sequence: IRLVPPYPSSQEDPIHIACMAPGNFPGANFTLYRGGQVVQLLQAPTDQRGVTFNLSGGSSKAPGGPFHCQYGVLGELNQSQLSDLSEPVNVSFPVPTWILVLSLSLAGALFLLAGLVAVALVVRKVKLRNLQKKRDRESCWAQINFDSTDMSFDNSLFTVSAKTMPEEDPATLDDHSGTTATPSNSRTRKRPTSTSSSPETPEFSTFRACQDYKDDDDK

[3] = target: T2, HIDE1_HH-1 (Human ECD + human IgG1 Fc …); test: SPR (ProteOn XPR 36): HIDE1-HH-1 captured on goat anti-human Fc GLC chip, Fab periplasmic extract injected 2 min, undiluted and 3-fold dilutions, 10 min dissociation
Procedure: A high density goat anti-human Fc antibody (Invitrogen) was immobilized by standard amine coupling over all lanes of a GLC chip using a ProteOn XPR 36 biosensor (Biorad). This surface was used to capture the recombinant HIDE1-H:H fusion protein (GenScript Lot 393383-21, batch #280) or a control Fc fusion protein (CD155, Sino Biologicals) in the vertical flow-cell direction at a concentration of ˜0.5 μg/mL for 90 seconds.
Each anti-HIDE1 Fab PPE sample was then injected at three concentrations (undiluted fab supernatant and two three-fold serial dilutions) in the horizontal direction over the captured fusion proteins. The dilutions were made using degassed PBS with 0.05% Tween 20 and 0.01% BSA. PPEs were injected for two minutes followed by 10 minutes of dissociation at a flow rate of 50 μL/min. The starting concentration range for each Fab is recorded in Table 39. The anti-human fc capture surfaces were regenerated with two 30-second pulses of 146 mM phosphoric acid after each cycle.

human HIDE1 [4] = target: T4, human HIDE1 (human, UniProt A8MVS5 20-230); test: FACS, CD14+ cells of human PBMCs, Alexa 647 conjugate
T4 construct: Endogenous on U937, HL-60, THP-1 cells, blood monocytes, AML blasts and dendritic cells; also called C19orf38; hHIDE1
T4 sequence: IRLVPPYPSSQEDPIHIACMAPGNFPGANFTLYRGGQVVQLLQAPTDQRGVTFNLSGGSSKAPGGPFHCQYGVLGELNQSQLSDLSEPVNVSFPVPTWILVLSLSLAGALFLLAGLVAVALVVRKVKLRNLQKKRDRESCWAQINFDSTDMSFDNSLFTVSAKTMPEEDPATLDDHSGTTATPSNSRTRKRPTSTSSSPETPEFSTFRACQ
Procedure: The following antibodies were used. […] Brilliant violet 510 labeled anti-CD3 (Biolegend, cat. 344828), PE-labeled anti-CD14 (Biolegend, cat. 301806) and PercP-labeled anti-CD19 (Biolegend, cat. 302228).
PBMCs cells were thawed and stained with viability dye (BD Horizon; Cat#562247, BD biosciences), washed and pre-blocked with Fc blocking solution (cat#422302, Biolegend; 1:20) and/or human Ig Fc (Jackson; 200 μg/ml; cat#009-000-008) to avoid nonspecific binding via Fc receptors. Cells were then stained with anti-hHIDE1 mAbs or mIgG1 isotype control in the presence or absence of lymphocytes or monocytes surface marker. All samples were run on a MACSQuant analyzer (Miltenyi) and data was analyzed using Tree Star FlowJo software. Cells were first gated for lymphocytes or monocyte (FSC-A vs. SSC-A), and further gated for live cells before analyzed for HIDE1 expression by flow cytometry.

human HIDE1 [5] = target: T4, human HIDE1; test: FACS, HL-60 cells
human HIDE1 [6] = target: T4, human HIDE1; test: FACS, U937 cells transfected with HIDE1 siRNA
human HIDE1 [7] = target: T4, human HIDE1; test: FACS, HL-60 cells transfected with scrambled siRNA
mouse HIDE1 Flag [8] = target: T1, mouse HIDE1 Flag; test: Western blot of whole cell extracts, goat anti-mouse HRP; remark: listed apart in the source
human HIDE1 [9] = target: T4, human HIDE1; test: FACS, THP1 cells
human HIDE1 [10] = target: T4, human HIDE1; test: FACS, HL-60 cells transfected with HIDE1 siRNA
human HIDE1 [11] = target: T4, human HIDE1; test: FACS, U937 cells
human HIDE1 [12] = target: T4, human HIDE1; test: FACS, U937 cells transfected with scrambled siRNA
human HIDE1 [13] = target: T4, human HIDE1; test: FACS, THP1 cells transfected with HIDE1 siRNA, AF647 conjugate
Procedure: Confirmation of HIDE1 endogenous expression was also tested in THP1 cells transfected with HIDE1 siRNA as described in M&M section. Analysis of human HIDE1 membrane expression in the siRNA transfected cells was performed by FACS. As shown in FIG. 31 membrane expressions of human HIDE1 protein is reduced in cells transfected with HIDE1 siRNA (green) as compared to cells transfected with scrambled siRNA (orange).

Kd [2]: 70 pM
koff [2]: 4.45e-05 s⁻¹
FACS analysis (GeoMean fold) human HIDE1/empty vector (human HIDE1-flag): 150 fold
B2: αhHIDE1_AbD25753.1_Ser_Fab (Fab)
heavy: EVQLVQSGAEVKKPGESLKISCKGSGYSFTNYWIHWVRQMPGKGLEWMGIIDPGNSFTRYSPSFQGQVTISADKSISTAYLQWSSLKASDTAMYYCARGDGLYGGSDGYSMGGFDNWGQGTLVTVSSASTKGPSVFPLAPSSKSTSGGTAALGCLVKDYFPEPVTVSWNSGALTSGVHTFPAVLQSSGLYSLSSVVTVPSSSLGTQTYICNVNHKPSNTKVDKKVEPKSEFKAEMPVLENRAAQGDITTPGGARRLTGDQTAALRDSLSDKPAKNIILLIGDGMGDSEITAARNYAEGAGGFFKGIDALPLTGQYTHYALNRKTGKPDYVTSSAASATAWSTGVKTYNGALGVDIHEKDHPTILEMAKAAGLATGNVSTAELQDATPAALVAHVTSRKCYGPSATSEKCPGNALEKGGKGSITEQLLNARADVTLGGGAKTFAETATAGEWQGKTLREQAQARGYQLVSDAASLNSVTEANQQKPLLGLFADGNMPVRWLGPKATYHGNIDKPAVTCTPNPQRNDSVPTLAQMTDKAIELLSKNEKGFFLQVEGASIDKQDHAANPCGQIGETVDLDEAVQRALEFAKKEGNTLVIVTADHAHASQIVAPDTKAPGLTQALNTKDGAVMVMSYGNSEEDSQEHTGSQLRIAAYGPHAANVVGLTDQTDLFYTMKAALGLKGAPDYKDDDDKGAPHHHHHH
light: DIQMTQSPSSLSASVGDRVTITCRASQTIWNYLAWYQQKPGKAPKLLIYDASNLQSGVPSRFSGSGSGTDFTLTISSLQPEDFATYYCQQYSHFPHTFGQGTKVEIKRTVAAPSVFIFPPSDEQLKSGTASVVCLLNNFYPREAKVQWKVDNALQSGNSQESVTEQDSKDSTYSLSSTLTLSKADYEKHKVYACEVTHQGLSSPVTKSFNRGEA
notes: Serotec HuCAL Fab-A-FH

binding result [3]: binds
B3: B09 S404-01.C08 (Fab, V domains shown)
VH: QVQLVESGGGVVQPGRSLRLSCAASGFTFSSYAMHWVRQAPGKGLEWVAVISYDGSNKYYADSVKGRFTISRDNSKNTLYLQMNSLRAEDTAVYYCARSSGSSWSNIAYWGQGTLVTVSS
VL: QSVLTQPPSVSGAPGQRVTISCIGSSSNIGAGYDVHWYRQLPGTAPKLLIYDNTNRPSGVPDRFSASKSGISASLAITGLQAEDEADYYCQSYDSNLSGVFGGGTQLTVL
notes: Fab form of CPA.12.012 (IgG4 form is m55); complex kinetics; copies: 1 + 1

Kd [2]: 100 pM
koff [2]: 6.09e-05 s⁻¹
FACS analysis (GeoMean fold) human HIDE1/empty vector (human HIDE1-flag): 145 fold
B5: αhHIDE1_AbD25754.1_Ser_Fab (Fab)
heavy: QVQLVQSGAEVKKPGASVKVSCKASGYTFSGYGMHWVRQAPGQGLEWMGIISPSNGNTNYAQKFQGRVTMTRDTSISTAYMELSRLRSEDTAVYYCAREVYYGLDVWGQGTLVTVSSASTKGPSVFPLAPSSKSTSGGTAALGCLVKDYFPEPVTVSWNSGALTSGVHTFPAVLQSSGLYSLSSVVTVPSSSLGTQTYICNVNHKPSNTKVDKKVEPKSEFKAEMPVLENRAAQGDITTPGGARRLTGDQTAALRDSLSDKPAKNIILLIGDGMGDSEITAARNYAEGAGGFFKGIDALPLTGQYTHYALNRKTGKPDYVTSSAASATAWSTGVKTYNGALGVDIHEKDHPTILEMAKAAGLATGNVSTAELQDATPAALVAHVTSRKCYGPSATSEKCPGNALEKGGKGSITEQLLNARADVTLGGGAKTFAETATAGEWQGKTLREQAQARGYQLVSDAASLNSVTEANQQKPLLGLFADGNMPVRWLGPKATYHGNIDKPAVTCTPNPQRNDSVPTLAQMTDKAIELLSKNEKGFFLQVEGASIDKQDHAANPCGQIGETVDLDEAVQRALEFAKKEGNTLVIVTADHAHASQIVAPDTKAPGLTQALNTKDGAVMVMSYGNSEEDSQEHTGSQLRIAAYGPHAANVVGLTDQTDLFYTMKAALGLKGAPDYKDDDDKGAPHHHHHH
light: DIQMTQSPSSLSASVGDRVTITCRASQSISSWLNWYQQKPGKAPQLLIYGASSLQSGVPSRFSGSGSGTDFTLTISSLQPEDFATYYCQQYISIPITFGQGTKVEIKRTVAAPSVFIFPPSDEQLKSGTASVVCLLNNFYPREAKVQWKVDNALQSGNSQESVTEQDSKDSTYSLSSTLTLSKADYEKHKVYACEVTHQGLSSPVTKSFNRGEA
modifications: Fab-A-FH format: the Fd chain carries bacterial alkaline phosphatase (which dimerises it, making the Fab bivalent), then FLAG and His6; all of these are in the letters.
notes: Serotec HuCAL Fab-A-FH; also called Ab332

Continued, binder first:

B1: Mouse anti human HIDE1 mAb (Biotem #39A7-3A10-3G8) (antibody, mouse IgG1, kappa, V domains shown)
VH: QVQLQQSGAELVRPGASVKLSCKALGYTFTDYEMHWVKQTPVHGLEWIGDIYPGSGGTAYNQKFKGKATLTADKSSSTAYMELSSLTSEDSAVYYCTRKGRSFAYWGQGTLVTVSA
VL: NIVMTQSPKSMSMSVGERVTLSCKASENVDTYVSWYQQKPEQSPKLLIYGASNRYTGVPDRFTGSGSATDFTLIISSVQAEDLADYHCGQSYRYPLTFGAGTKLELKR
notes: Mouse IgG1; also called 39A7-39A10-3G8
binding result (mouse HIDE1 Flag [1]): no binding (tested: 2 µg/ml)

B4: Mouse anti human HIDE1 mAb (Biotem #33B4-2F7) (antibody, mouse IgG1, kappa, V domains shown)
VH: QIQLVQSGPELKKPGETVKISCKASGYTFTNYGMNWVKQAPGKGLKWMGWINTYTGEPTYADDFKGRFAFSLETPASTAYLQINNLKNEDMATYFCVREHFYALDYWGQGTSVTVSS
VL: KIVLTQSPASLAVSLRQRATISCRASESVDSYGNSFMHWYQQKPGQPPKLLIYRASNLESGVPARFSGSGSRTDFTLTIDPVEADDAATYYCQQSNEDPRTFGGGTKLEIKR
notes: Mouse IgG1; also called Ab-364
staining, folds over isotype control (human HIDE1 [4]): ~3 fold
FACS (fold change from isotype) (human HIDE1 [5]): 4 fold
fold change (anti HIDE1 vs. isotype control) (human HIDE1 [6]): 7 fold
fold change (anti HIDE1 vs. isotype control) (human HIDE1 [7]): 5.2 fold
binding result (mouse HIDE1 Flag [8]): no binding (tested: 2 µg/ml)
FACS (fold change from isotype) (human HIDE1 [9]): 3 fold
fold change (anti HIDE1 vs. isotype control) (human HIDE1 [10]): 3 fold
FACS (fold change from isotype) (human HIDE1 [11]): 14 fold
fold change (anti HIDE1 vs. isotype control) (human HIDE1 [12]): 17.7 fold
fold change (anti HIDE1 vs. isotype control) (human HIDE1 [13]): 1.9 fold
